Laboratory results as given in patent US20190323037, “REPLICATIVE TRANSPOSON SYSTEM” (HORIZON DISCOVERY LIMITED, published 2019).

T1: Helraiser transposase (RepHel, Helitron) (Myotis lucifugus)
T1 chain: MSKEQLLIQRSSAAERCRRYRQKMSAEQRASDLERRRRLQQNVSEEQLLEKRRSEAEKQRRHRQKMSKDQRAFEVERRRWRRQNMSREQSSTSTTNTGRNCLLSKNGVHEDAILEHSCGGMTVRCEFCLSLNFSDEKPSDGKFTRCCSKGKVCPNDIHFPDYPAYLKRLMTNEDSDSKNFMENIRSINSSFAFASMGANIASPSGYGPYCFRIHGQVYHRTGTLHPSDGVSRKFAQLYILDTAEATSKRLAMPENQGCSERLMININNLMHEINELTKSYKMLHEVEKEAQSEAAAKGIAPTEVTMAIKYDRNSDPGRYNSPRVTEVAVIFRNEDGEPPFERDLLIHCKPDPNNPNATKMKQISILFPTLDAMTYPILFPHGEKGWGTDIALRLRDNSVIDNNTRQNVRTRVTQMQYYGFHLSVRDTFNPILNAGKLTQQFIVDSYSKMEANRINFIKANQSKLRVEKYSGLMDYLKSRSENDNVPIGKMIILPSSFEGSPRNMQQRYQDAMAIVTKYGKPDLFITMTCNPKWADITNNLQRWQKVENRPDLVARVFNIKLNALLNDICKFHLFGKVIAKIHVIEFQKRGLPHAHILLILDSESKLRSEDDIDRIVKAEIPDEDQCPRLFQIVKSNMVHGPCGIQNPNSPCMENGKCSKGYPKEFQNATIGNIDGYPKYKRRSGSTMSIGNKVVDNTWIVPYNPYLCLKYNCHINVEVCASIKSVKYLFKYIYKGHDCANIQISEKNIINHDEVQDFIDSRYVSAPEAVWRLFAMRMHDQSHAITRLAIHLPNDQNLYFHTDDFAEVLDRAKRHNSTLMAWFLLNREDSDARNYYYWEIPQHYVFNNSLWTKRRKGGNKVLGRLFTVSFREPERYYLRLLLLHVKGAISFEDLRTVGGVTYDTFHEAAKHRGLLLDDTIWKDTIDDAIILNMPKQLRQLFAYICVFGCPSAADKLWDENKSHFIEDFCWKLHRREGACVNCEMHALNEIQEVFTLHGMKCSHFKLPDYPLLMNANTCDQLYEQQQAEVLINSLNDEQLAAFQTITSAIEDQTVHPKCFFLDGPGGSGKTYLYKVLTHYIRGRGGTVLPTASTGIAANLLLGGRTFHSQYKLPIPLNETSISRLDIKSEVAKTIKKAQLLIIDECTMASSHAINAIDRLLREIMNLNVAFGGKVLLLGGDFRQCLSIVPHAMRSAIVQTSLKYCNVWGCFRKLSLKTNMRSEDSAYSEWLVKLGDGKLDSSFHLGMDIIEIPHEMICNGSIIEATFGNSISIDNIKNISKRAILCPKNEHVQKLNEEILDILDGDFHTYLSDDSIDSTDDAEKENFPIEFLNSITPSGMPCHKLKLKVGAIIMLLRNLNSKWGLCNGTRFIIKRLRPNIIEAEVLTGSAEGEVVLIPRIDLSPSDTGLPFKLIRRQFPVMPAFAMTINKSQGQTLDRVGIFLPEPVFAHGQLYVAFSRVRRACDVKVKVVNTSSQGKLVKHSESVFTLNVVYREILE


Legend:
[1] = target: T1, Helraiser transposase (RepHel, Helitron); assay: EMSA; text says cleavage-assay oligonucleotides bound; conditions: tags: His tag (pFastBac HT-A), TEV-cleaved, insect cells, label: 6-FAM
Experimental: (§1) Binding of the Helraiser transposase to various DNA oligonucleotides was measured by EMSA using 6% TBE gels (Invitrogen). Purified protein at 15 nM-150 nM was incubated for 30 min at room temperature in binding buffer (50 mM Tris pH 7.5, 100 mM NaCl, 10 mM MgCl₂, 0.5 mM ETDA, 1 mM TCEP) with 50 nM 6-FAM labeled oligonucleotides. After addition of DNA gel loading solution (Quality Biological, INC), samples were run on 6% TBE gels and visualized.

[2] = target: T1, Helraiser transposase (RepHel, Helitron); assay: EMSA; 10 mM MgCl2, 100 mM NaCl, pH 7.5, RT; 50 nM oligo; text says cleavage-assay oligonucleotides; conditions: tags: His tag (pFastBac HT-A), TEV-cleaved; insect cells; label: 6-FAM
Experimental: as §1

Binder | binding result [1] | also measured
GGGATGGTCAATTTGCATGTTTCTCTTTTATTATATAGGATCATATGGTG (ssDNA, [NONE]) [Helraiser LTS substrate (-), bottom strand] | binds | 
CACCATATGATCCTATATAATAAAAGAGAAACATGCAAATTGACCATCCC (ssDNA) [Helraiser LTS substrate (+), top strand] |  | binding result [2]: binds
TATATATATACTAGTGGCCCGGTGCACGAAATTCGTGCACATTGAAAGGG (ssDNA, [NONE]) [Helraiser RTS substrate (-), bottom strand] | binds | 
CCCTTTCAATGTGCACGAATTTCGTGCACCGGGCCACTAGTATATATATA (ssDNA) [Helraiser RTS substrate (+), top strand] |  | binding result ([1]; potential hairpin (19-nt palindrome)): binds
